{"source": "patent US9909146B2", "about": "“Production of alkenes by enzymatic decarboxylation of 3-hydroxyalkanoic acids” (priority 2008, dated 2018)", "molecules": {"B1": {"name": "Candidate 10: purified decarboxylase enzyme of SEQ ID NO: 6 from Picrophilus torridus, Q6KZB1, N-terminal His tag (protein)", "chain": "MENYNVKTRAFPTIGIILLGGISDKKNRIPLHTTAGIAYTGINNDVYTETKLYVSKDEKCYIDGKEIDLNSDRSPSKVIDKFKHEILMRVNLDDENNLSIDSRNFNILSGSSDSGAAALGECIESIFEYNINIFTFENDLQRISESVGRSLYGGLTVNYANGRESLTEPLLEPEAFNNFTIIGAHFNIDRKPSNEIHENIIKHENYRERIKSAERKAKKLEELSRNANIKGIFELAESDTVEYHKMLHDVGVDIINDRMENLIERVKEMKNNFWNSYIVTGGPNVFVITEKKDVDKAMEGLNDLCDDIRLLKVAGKPQVISKNF", "modifications": "N-terminal His tag"}}, "key": {"[1]": {"molecular_target": "T1, enzyme SEQ ID NO: 6 (MDP decarboxylase) (Picrophilus torridus, UniProt Q6KZB1)", "T1 construct": "6-Histidine tag (N); made in house; host or cells: E. coli BL21(DE3)", "T1 sequence (Q6KZB1 1-324)": "B1 chain", "assay": "Effect of ATP co-substrate and Mg2+ cofactor on IBN production by enzyme SEQ ID NO: 6", "type": "biochemical", "settings": "1 mg/ml enzyme, 72 h at 30° C.", "method": "Effect of ATP Co-Substrate\n(§1) 200 mM HIV (to be specified)\n(§2) Incubation 72 h at 30° C.\nOther molecules, and in particular those containing a phosphoanhydride bond, could also be efficient co-substrates for the enzyme.\nOther ions, and in particular other divalent ions, could be used as cofactor in place of or in addition to Mg^2+ ions."}, "[2]": {"molecular_target": "T1, enzyme SEQ ID NO: 6 (MDP decarboxylase)", "assay": "Substrate range test, Km of enzyme SEQ ID NO: 6 for HIV", "type": "biochemical", "settings": "previously described conditions, incubation at 50° C., read-out: Km of the enzyme / affinity for HIV", "method": "FIG. 13: IBN production according to concentration of HIV substrate.\nA substrate range was tested in the previously described conditions, with incubation at 50° C. The Km of the enzyme is approximately 40 mM HIV."}, "[3]": {"molecular_target": "T2, MDP decarboxylase of Saccharomyces cerevisiae (Saccharomyces cerevisiae, UniProt P32377)", "T2 construct": "made in house; host or cells: E. coli BL21", "T2 sequence (P32377 1-396)": "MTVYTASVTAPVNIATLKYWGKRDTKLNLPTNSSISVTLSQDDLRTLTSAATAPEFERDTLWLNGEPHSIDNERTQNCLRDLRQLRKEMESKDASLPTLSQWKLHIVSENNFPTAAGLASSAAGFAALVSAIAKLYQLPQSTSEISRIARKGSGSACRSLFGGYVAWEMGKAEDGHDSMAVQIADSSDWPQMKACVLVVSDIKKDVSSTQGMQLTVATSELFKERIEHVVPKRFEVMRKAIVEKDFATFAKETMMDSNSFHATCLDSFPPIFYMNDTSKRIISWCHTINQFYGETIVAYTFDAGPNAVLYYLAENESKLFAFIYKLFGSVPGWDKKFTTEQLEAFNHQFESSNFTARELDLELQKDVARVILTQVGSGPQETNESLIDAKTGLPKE", "assay": "Activity of protein extract (S. cerevisiae MDP decarboxylase) towards 3-hydroxy-3-methylbutyrate, with or without cofactor", "type": "biochemical", "method": "The gene encoding MDP decarboxylase of Saccharomyces cerevisiae is synthesized from overlapping oligonucleotides and cloned in a pET plasmid (Novagen) allowing expression in bacteria. Said plasmid is then transformed by electroporation into bacterial strain BL21 (Invitrogen). The bacteria are streaked on a Petri dish containing ampicillin and incubated at 37° C. The next day, a bacterial colony is randomly selected and used to inoculate 50 ml of LB medium containing ampicillin. The culture is incubated for 24 h while shaking, after which the culture is centrifuged, the bacteria lysed by sonication, and a total protein extract prepared. An aliquot of the extract is loaded on an electrophoresis gel together with a protein extract from the same strain which has not been transformed, and with molecular weight markers. […]\nVials are sealed with a septum and crimped. […] After incubation, a gas syringe is used to collect the gas present in each vial, and the CO2 concentration in the samples is measured by gas chromatography. […] The presence of isobutylene in the gas sample from vial 6 is then measured by gas chromatography with infrared or flame ionization detection. […]\nAs in the previous example, isobutylene formation is measured by gas chromatography with infrared or flame ionization detection."}, "[4]": {"assay": "Screening of a library of 63 MDP decarboxylase family enzymes for activity on HIV", "type": "biochemical", "settings": "200 mM HIV, 10 mM ATP, pH 5.5 or 7.0, 37° C. for 72 h, GC/MS", "text": "A library of 63 genes encoding enzymes from the MDP decarboxylase family was obtained and tested for activity on HIV as substrate.\nThe genes encoding the mevalonate diphosphate (MDP) decarboxylase family EC 4.1.1.33 were cloned in the pET 25b vector (Novagen) in the case of eukaryotic genes and pET 22b (Novagen) for genes of prokaryotic origin, with a 6-Histidine tag at the N-terminal end immediately after the methionine initiation codon. Competent E. coli BL21(DE3) cells (Novagen) were transformed with these vectors by heat shock. The cells were grown with shaking (160 rpm) at 30° C. in TB medium containing 0.5 M sorbitol, 5 mM betain, 100 μg/ml ampicillin until reaching an OD at 600 nm comprised between 0.8 and 1. Isopropyl-B-D-thiogalactopyranoside (IPTG) was then added to a final concentration of 1 mM and protein expression was continued at 20° C. overnight (approximately 16 h). The cells were collected by centrifugation at 4° C., 10,000 rpm for 20 min and the pellets were frozen at −80° C. […]\nThe clarified bacterial lysates were loaded on a PROTINO-1000 Ni-IDA column (Macherey-Nagel) allowing adsorption of 6-His tag proteins. […] Protein was quantified by the Bradford method. […]\nThe gas present above the reactions was collected with a syringe equipped with a no-return mechanism. The gas sample was analyzed by gas chromatography (GC) coupled with mass spectrometry (MS). […]"}, "[5]": {"assay": "Conversion of HIV to isobutylene (IBN) by purified enzyme SEQ ID NO: 6, GC measurement", "type": "biochemical, Picrophilus torridus", "method": "The recombinant enzyme was purified as described in example 4.\nThe activity of the isolated enzyme was confirmed. The reaction was carried out in the following conditions:\nAfter 72 h incubation at 30° C., the signal was measured by GC/MS. In the presence of the enzyme, IBN production was increased here by approximately 2.3-fold over background noise. The background noise observed here is in agreement with the organic chemistry literature, showing that in aqueous solution and at a temperature of around 100° C., 3-hydroxyisovaleric acid slowly decarboxylates to tert-butanol, which is partially dehydrated to isobutylene, following an equilibrium favorable to the formation of tert-butanol (Pressman and Luca, J. Am. Chem. Soc. 1940).\nEnzymatic Activity According to Temperature\nas §1\nIncubation 72 h at different temperatures.\nas §2\nOptimal conditions were obtained with a pH of 5.5 in 100 mM citrate.\nOptimization of Reaction Conditions\nOptimum reaction conditions were sought, and the following conditions were retained:\nIncubation 48 h at 50° C."}}}
{"molecule": "Nc1ncnc2c1ncn2[C@@H]1O[C@H](COP(=O)(O)OP(=O)(O)OP(=O)(O)O)[C@@H](O)[C@H]1O", "note": "[ATP]", "values": [{"measurement": "enzyme activity (IBN production) in presence and absence of ATP", "setting": "[1]; 0 or 10 mM ATP, 100 mM citrate pH 5.5, 200 mM HIV", "value": "only observed in the presence"}]}
{"molecule": "CC(C)(O)CC(=O)O", "note": "[HIV, 3-hydroxy-3-methylbutyrate]", "values": [{"measurement": "Km", "setting": "[2]", "value": "~40", "unit": "mM"}, {"measurement": "reaction of the enzyme preparation (CO2 detected by gas chromatography)", "setting": "[3]; vial 6, 5 mM ATP, 10 mM MgCl2, 37° C., 4 hours to 3 days", "value": "significant reaction"}]}
{"molecule": "[Mg+2]", "note": "[Mg^2+]", "values": [{"measurement": "enzyme activity (IBN production) in presence and absence of Mg2+", "setting": "[1]; 0 or 5 mM MgCl2, 100 mM citrate pH 5.5, 10 mM ATP, 200 mM HIV", "value": "improved"}]}
{"molecule": "CCOP(=O)(O)OP(=O)(O)O", "note": "[ethyl diphosphate, reference compound]", "values": [{"measurement": "amount of isobutylene produced over time with cofactor", "setting": "[3]; 10 μl of 10 mg/l ethyl diphosphate added to 3-hydroxy-3-methylbutyrate reaction", "value": "markedly higher"}]}
{"molecule": "B1", "values": [{"measurement": "level of isobutylene (IBN) production in library screening", "setting": "[4]", "value": "highest levels"}, {"measurement": "IBN production in presence of enzyme over background noise", "setting": "[5]; 100 mM Tris-HCl, 10 mM MgCl2, 10 mM ATP, 20 mM KCl, pH 6.0, 3 mg/ml enzyme, 72 h at 30° C., GC/MS", "value": "approximately 2.3 fold"}, {"measurement": "temperature optimum of enzymatic activity", "setting": "[5]; 100 mM buffer, 50 mM KCl, 10 mM ATP, 200 mM HIV, 1 mg/ml enzyme, 72 h at different temperatures", "value": "approximately 50 °C"}, {"measurement": "optimal pH of enzymatic activity", "setting": "[5]; 100 mM citrate, 50 mM KCl, 10 mM ATP, 200 mM HIV, 1 mg/ml enzyme, 72 h at 30° C.", "value": 5.5}, {"measurement": "signal-to-noise ratio (measured in the absence of enzyme) for the conversion yield", "setting": "[5]; in some conditions, example 5", "value": "approximately 100 fold"}, {"measurement": "ratio of the signal over background noise", "setting": "[5]; optimized: 100 mM citrate, 50 mM KCl, 40 mM ATP, 200 mM HIV, 1 mg/ml enzyme, 48 h at 50° C., GC-FID", "value": "approximately 100"}]}
